Source: publication PMC10666288, “Unveiling the Catalytic Mechanism of a Processive Metalloaminopeptidase” (Biochemistry, 2023)

Columns and labels:
[1] = biological target: the molecule itself; assay: crystal structure; uncleaved PaPepA, sitting drop, 20 °C, PEG 3350 and ammonium nitrate; three crystal forms: apo, with MnCl2, with bestatin and MnCl2
[2] = biological target: the molecule itself; assay: dynamic light scattering; PaPepA in solution; conditions not shown (Figure S14)

Protein	stoichiometry N [1]	stoichiometry N [2]
PepA from P. aeruginosa strain PA14 (PaPepA), uncleaved His6-tagged protein used for crystallography (enzyme, Pseudomonas aeruginosa strain PA14, Leucine aminopeptidase PepA, Pseudomonas aeruginosa strain PA14, PA14_14470, UniProt Q02RY8; also called leucine aminopeptidase from Pseudomonas aeruginosa; uncleaved PaPepA; source: E. coli BL21(DE3), purified (HisTrap FF nickel column, dialysed; not TEV-cleaved); not shown: His6 (followed by a linker and a TEV protease cleavage site), N-terminal, kept) MEFLVKSVRPETLKTATLVLAVGEGRKLGASAKAVDDATGGAISAVLKRGDLAGKVGQTLLLQSLPNLKAERVLLVGAGKERELGDRQYRKLASAVLSTLKGLAGADAALALGDLAVKGRGAHAKARLLVETLADGLYVFDRYKSQKAEPLKLKKLTLLADKADSAAVEQGSKEAQAIANGMALTRDLGNLPPNVCHPTFLGEQAKGLAKEFKSLKVEVLDEKKLRELGMGSFLAVAQGSDQPPRLIILQYNGAKKDQAPHVLVGKGITFDTGGISLKPGLGMDEMKFDMCGAASVFGTFRAVLELQLPINLVGLLACAENMPSGGATRPGDIVTTMSGQTVEILNTDAEGRLVLCDALTYAERFKPQSVIDIATLTGACIVALGSNTSGLMGNNEALVRQLLKAGEFADDRAWQLPLFDEYQEQLDSPFADIANIGGPKAGTITAGCFLSRFAKKYHWAHLDIAGTAWISGGKDKGATGRPVPLLTQYLLERAK	6	–
PepA from P. aeruginosa strain PA14 (PaPepA), protein used for dynamic light scattering (enzyme, Pseudomonas aeruginosa strain PA14, Leucine aminopeptidase PepA, Pseudomonas aeruginosa strain PA14, PA14_14470, UniProt Q02RY8; probably the cleaved one; also called leucine aminopeptidase from Pseudomonas aeruginosa; source: E. coli BL21(DE3), purified (HisTrap FF nickel column)) MEFLVKSVRPETLKTATLVLAVGEGRKLGASAKAVDDATGGAISAVLKRGDLAGKVGQTLLLQSLPNLKAERVLLVGAGKERELGDRQYRKLASAVLSTLKGLAGADAALALGDLAVKGRGAHAKARLLVETLADGLYVFDRYKSQKAEPLKLKKLTLLADKADSAAVEQGSKEAQAIANGMALTRDLGNLPPNVCHPTFLGEQAKGLAKEFKSLKVEVLDEKKLRELGMGSFLAVAQGSDQPPRLIILQYNGAKKDQAPHVLVGKGITFDTGGISLKPGLGMDEMKFDMCGAASVFGTFRAVLELQLPINLVGLLACAENMPSGGATRPGDIVTTMSGQTVEILNTDAEGRLVLCDALTYAERFKPQSVIDIATLTGACIVALGSNTSGLMGNNEALVRQLLKAGEFADDRAWQLPLFDEYQEQLDSPFADIANIGGPKAGTITAGCFLSRFAKKYHWAHLDIAGTAWISGGKDKGATGRPVPLLTQYLLERAK	–	6
